From paper PMC5708134

Substrate: CC1=CC(=O)c2ccccc2C1=O
Test: Chemical redox cycling by DCXR
Assay type: biochemical, human
Conditions: other: redox cycling; quinone varied; 200 μM NADPH fixed; pH 7.0

B1: recombinant human DCXR (Homo sapiens) (protein)
chain: MELFLAGRRVLVTGAGKGIGRGTVQALHATGARVVAVSRTQADLDSLVRECPGIEPVCVDLGDWEATERALGSVGPVDLLVNNAAVALLQPFLEVTKEAFDRSFEVNLRAVIQVSQIVARGLIARGVPGAIVNVSSQCSQRAVTNHSVYCSTKGALDMLTKVMALELGPHKIRVNAVNPTVVMTSMGQATWSDPHKAKTMLNRIPLGKFAEVEHVVNAILFLLSDRSGMTTGSTLPVEGGFWAC
Km: 365.80 µM
kcat: 0.022 s⁻¹
kcat/Km: 66.7 M⁻¹ s⁻¹
